This assay has as its target HLA-A*02:01 (Homo sapiens, UniProt P04439, D140Y/D185E/D98H/E176V/E277Q/G131W/G231S/I119V/I121R/I166T/I218V/L300P/L318F/N151K/N90K/P208A/P217A/Q86G/Q94H/R138H/R169H/T345S). Description: MHC binding assay (UV-ligand exchange, beta2m ELISA). Conditions: binding to HLA-A*02:01 ranged by peptide exchange yield (UV-ligand exchange, β2m ELISA). An excerpt: Candidate peptides for T cell based therapies according to the present invention were further tested for their MHC binding capacity (affinity). The individual peptide-MHC complexes were produced by UV-ligand exchange, where a UV-sensitive peptide is cleaved upon UV-irradiation, and exchanged with the peptide of interest as analyzed. Only peptide candidates that can effectively bind and stabilize the peptide-receptive MHC molecules prevent dissociation of the MHC complexes. To determine the yield of the exchange reaction, an ELISA was performed based on the detection of the light chain (β2m) of stabilized MHC complexes. The assay was performed as generally described in Rodenko et al. (Rodenko et al., 2006).
96 well MAXISorp plates (NUNC) were coated over night with 2 ug/ml streptavidin in PBS at room temperature, washed 4× and blocked for 1 h at 37° C. in 2% BSA containing blocking buffer. […] Peptide-MHC monomers of the UV-exchange reaction were diluted 100 fold in blocking buffer. Samples were incubated for 1 h at 37° C., washed four times, incubated with 2 ug/ml HRP conjugated anti-β2m for 1 h at 37° C., washed again and detected with TMB solution that is stopped with […]. Absorption was measured at 450 nm. Candidate peptides that show a high exchange yield (preferably higher than 50%, most preferred higher than 75%) are generally preferred for a generation and production of antibodies or fragments thereof, and/or T cell receptors or fragments thereof, as they show sufficient avidity to the MHC molecules and prevent dissociation of the MHC complexes.
For “447 (QLVPALAKV; listed as Homo sapiens) [compound 447]”, the Peptide exchange result is on record as ““++” (≥20% = ++)”.

For the substance “490 (FLLQHVQEL; listed as Homo sapiens) [compound 490]”, the Peptide exchange result is given as ““+++” (≥50 = +++)”. For the substance “397 (YLFGERLLEC; listed as Homo sapiens) [compound 397]”, the Peptide exchange entry is reported as ““+++” (≥50 = +++)”. As for “218 (SALEELVNV; listed as Homo sapiens) [compound 218]”, the entry is ““++” (≥20% = ++)”; as for “120 (ALLGIPLTLV; listed as Homo sapiens) [compound 120]”, ““+++” (≥50 = +++)”. Consider “202 (ALLDQQGSRWTL; listed as Homo sapiens) [compound 202]”, for which the Peptide exchange entry was ““+++” (≥50 = +++)”.

As for “595 (VLLSIYPRV; listed as Homo sapiens) [compound 595]”, the Peptide exchange result was ““+++” (≥50 = +++)”. To “392 (ALLHPQGFEV; listed as Homo sapiens) [compound 392]” belongs ““++” (≥20% = ++)”; to “241 (SLVEVNPAYSV; listed as Homo sapiens) [compound 241]”, ““+++” (≥50 = +++)”. On to “167 (KVLEVTEEFGV; listed as Homo sapiens) [compound 167]”, for which the Peptide exchange entry is ““+++” (≥50 = +++)”. On to “537 (TLAPGEVLRSV; listed as Homo sapiens) [compound 537]”, for which the Peptide exchange entry is ““+++” (≥50 = +++)”. Regarding “330 (QLALKVEGV; listed as Homo sapiens) [compound 330]”, the Peptide exchange entry is ““+++” (≥50 = +++)”. Turning to “525 (VLLEAGEGLVTI; listed as Homo sapiens) [compound 525]”, the Peptide exchange entry is given as ““+++” (≥50 = +++)”.

For “127 (KIGDEPPKV; listed as Homo sapiens) [compound 127]”, the Peptide exchange result is given as ““++” (≥20% = ++)”. As for “315 (YLQDVVEQA; listed as Homo sapiens) [compound 315]”, the entry is ““+++” (≥50 = +++)”; as for “176 (YLMEGSYNKVFL; listed as Homo sapiens) [compound 176]”, ““++” (≥20% = ++)”; as for “455 (SLLKEPQKVQL; listed as Homo sapiens) [compound 455]”, ““++” (≥20% = ++)”. As for “358 (ALDEYTSEL; listed as Homo sapiens) [compound 358]”, the entry is ““++++” (≥75% = ++++)”; as for “31 (YLAPELFVNV; listed as Homo sapiens) [compound 31]”, ““++” (≥20% = ++)”. To “366 (RLLDMGETDLML; listed as Homo sapiens) [compound 366]” belongs ““+++” (≥50 = +++)”; to “438 (KLLPLAGLYL; listed as Homo sapiens) [compound 438]”, ““++++” (≥75% = ++++)”.

Turning to “457 (SLLPGNLVEKV; listed as Homo sapiens) [compound 457]”, the Peptide exchange result is given as ““+++” (≥50 = +++)”. As for “180 (FQIDPHSGLVTV; listed as Homo sapiens) [compound 180]”, the entry is ““++” (≥20% = ++)”; as for “321 (GLFEDVTQPGILL; listed as Homo sapiens) [compound 321]”, ““++++” (≥75% = ++++)”. To “124 (ALYETELADA; listed as Homo sapiens) [compound 124]” belongs ““++” (≥20% = ++)”. As for “70 (GLLDYPVGV; listed as Homo sapiens) [compound 70]”, the Peptide exchange entry is given as ““+++” (≥50 = +++)”. To “129 (GLLDGGVDILL; listed as Homo sapiens) [compound 129]” belongs ““+++” (≥50 = +++)”; to “46 (ILTEENIHL; listed as Homo sapiens) [compound 46]”, ““+++” (≥50 = +++)”; to “516 (AVGPASILKEV; listed as Homo sapiens) [compound 516]”, ““++” (≥20% = ++)”. To “144 (YIMEPSIFNTL; listed as Homo sapiens) [compound 144]” belongs ““+++” (≥50 = +++)”. Turning to “333 (FLPDANSSV; listed as Homo sapiens) [compound 333]”, the Peptide exchange entry is ““++” (≥20% = ++)”. As to “467 (FLAKDFNFL; listed as Homo sapiens) [compound 467]”, the Peptide exchange entry is listed as ““+++” (≥50 = +++)”.

Take “506 (KLLGKVETA; listed as Homo sapiens) [compound 506]”: the Peptide exchange entry was ““+++” (≥50 = +++)”. With “267 (ALQDFLLSV; listed as Homo sapiens) [compound 267]”, the Peptide exchange result was ““+++” (≥50 = +++)”. As for “566 (VIADGGIQNV; listed as Homo sapiens) [compound 566]”, the entry is ““++” (≥20% = ++)”; as for “356 (KLLGKLPEL; listed as Homo sapiens) [compound 356]”, ““+++” (≥50 = +++)”; as for “114 (SLVGEPILQNV; listed as Homo sapiens) [compound 114]”, ““++” (≥20% = ++)”.

“254 (TLLAFIMEL; listed as Homo sapiens) [compound 254]”: the Peptide exchange entry is on record as ““+++” (≥50 = +++)”. To “380 (TLIEDEIATI; listed as Homo sapiens) [compound 380]” belongs ““++” (≥20% = ++)”; to “139 (SVMEVNSGIYRV; listed as Homo sapiens) [compound 139]”, ““+++” (≥50 = +++)”. Regarding “61 (FLQGYQLHL; listed as Homo sapiens) [compound 61]”, the Peptide exchange entry is ““++++” (≥75% = ++++)”. To “277 (LLPPLESLATV; listed as Homo sapiens) [compound 277]” belongs ““++” (≥20% = ++)”. To “354 (LILEGVDTV; listed as Homo sapiens) [compound 354]” belongs ““++” (≥20% = ++)”.

Turning to “582 (TLCDVILMV; listed as Homo sapiens) [compound 582]”, the Peptide exchange result is on record as ““+++” (≥50 = +++)”. As for “256 (FLPPEHTIVYI; listed as Homo sapiens) [compound 256]”, the entry is ““+++” (≥50 = +++)”; as for “15 (VLLTFKIFL; listed as Homo sapiens) [compound 15]”, ““++” (≥20% = ++)”. To “272 (ALGNTVPAV; listed as Homo sapiens) [compound 272]” belongs ““+++” (≥50 = +++)”. As for “257 (SIFSAFLSV; listed as Homo sapiens) [compound 257]”, the entry is ““+++” (≥50 = +++)”.

In the case of “334 (TLTKVLVAL; listed as Homo sapiens) [compound 334]”, the Peptide exchange result is ““+++” (≥50 = +++)”.

Regarding “263 (LLVSNLDFGV; listed as Homo sapiens) [compound 263]”, the Peptide exchange entry is on record as ““+++” (≥50 = +++)”.

On to “255 (VLASYNLTV; listed as Homo sapiens) [compound 255]”, for which the Peptide exchange result was ““+++” (≥50 = +++)”. Turning to “559 (VTVPPGPSL; listed as Homo sapiens) [compound 559]”, the Peptide exchange entry is ““++” (≥20% = ++)”.

In the case of “121 (GVVDPRAISVL; listed as Homo sapiens) [compound 121]”, the Peptide exchange entry was ““++” (≥20% = ++)”. As for “569 (KLVDRTWTL; listed as Homo sapiens) [compound 569]”, the entry is ““+++” (≥50 = +++)”.

For the substance “182 (MLLEAPGIFL; listed as Homo sapiens) [compound 182]”, the Peptide exchange entry is recorded as ““+++” (≥50 = +++)”. As for “400 (SLLTEQDLWTV; listed as Homo sapiens) [compound 400]”, the entry is ““++” (≥20% = ++)”. As to “158 (KLFDVDEDGYI; listed as Homo sapiens) [compound 158]”, the Peptide exchange result was ““+++” (≥50 = +++)”. As for “597 (KLLEGQVIQL; listed as Homo sapiens) [compound 597]”, the entry is ““+++” (≥50 = +++)”; as for “363 (KVLDVSDLESV; listed as Homo sapiens) [compound 363]”, ““++” (≥20% = ++)”; as for “353 (YLFEMDSSL; listed as Homo sapiens) [compound 353]”, ““++” (≥20% = ++)”.

For the substance “382 (ALQNYIKEA; listed as Homo sapiens) [compound 382]”, the Peptide exchange entry is given as ““++” (≥20% = ++)”.

Consider “317 (SLAALVVHV; listed as Homo sapiens) [compound 317]”, for which the Peptide exchange entry was ““+++” (≥50 = +++)”. As for “19 (FMVDNEAIYDI; listed as Homo sapiens) [compound 19]”, the entry is ““++++” (≥75% = ++++)”; as for “181 (LLWAGTAFQV; listed as Homo sapiens) [compound 181]”, ““+++” (≥50 = +++)”. As to “191 (LLQEGQALEYV; listed as Homo sapiens) [compound 191]”, the Peptide exchange entry was ““++” (≥20% = ++)”.

(Values after patent publication US10738094B2, “Peptides and combination of peptides for use in immunotherapy against ovarian cancer and other cancers” (immatics biotechnologies GmbH, priority 2015, dated 2020).)
